The numbers were not newly measured in article PMC4370575, which cites them from elsewhere.

One data set concerns the target Mms2 (Homo sapiens) (UniProt Q15819).
The target of the next data set is UbcH5c~Ub (Homo sapiens) (UniProt P61077).

UniProt Q15819, sequence (Q15819 2-145): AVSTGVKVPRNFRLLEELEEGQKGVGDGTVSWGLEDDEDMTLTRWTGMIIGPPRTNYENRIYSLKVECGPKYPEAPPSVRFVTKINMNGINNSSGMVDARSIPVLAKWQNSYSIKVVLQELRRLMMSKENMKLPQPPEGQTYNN

For Ubc13 (from UniProt P61088), the Kd with Mms2 (Homo sapiens) was 2 µM.
As for UbcH5c~Ub (from UniProt P61077), in the data set with UbcH5c~Ub (Homo sapiens), the Kd is 25 µM.

The term Kd denotes the free concentration of one partner at which half of the binding sites on the other are occupied at equilibrium, for simple one-to-one binding.
